B1: DNA polymerase eta (Saccharomyces cerevisiae), Q04049 (parent)
chain: MSKFTWKELIQLGSPSKAYESSLACIAHIDMNAFFAQVEQMRCGLSKEDPVVCVQWNSIIAVSYAARKYGISRMDTIQEALKKCSNLIPIHTAVFKKGEDFWQYHDGCGSWVQDPAKQISVEDHKVSLEPYRRESRKALKIFKSACDLVERASIDEVFLDLGRICFNMLMFDNEYELTGDLKLKDALSNIREAFIGGNYDINSHLPLIPEKIKSLKFEGDVFNPEGRDLITDWDDVILALGSQVCKGIRDSIKDILGYTTSCGLSSTKNVCKLASNYKKPDAQTIVKNDCLLDFLDCGKFEITSFWTLGGVLGKELIDVLDLPHENSIKHIRETWPDNAGQLKEFLDAKVKQSDYDRSTSNIDPLKTADLAEKLFKLSRGRYGLPLSSRPVVKSMMSNKNLRGKSCNSIVDCISWLEVFCAELTSRIQDLEQEYNKIVIPRTVSISLKTKSYEVYRKSGPVAYKGINFQSHELLKVGIKFVTDLDIKGKNKSYYPLTKLSMTITNFDIIDLQKTVVDMFGNQVHTFKSSAGKEDEEKTTSSKADEKTPKLECCKYQVTFTDQKALQEHADYHLALKLSEGLNGAEESSKNLSFGEKRLLFSRKRPNSQHTATPQKKQVTSSKNILSFFTRKK

In this assay the parent is B1. The settings on record: with pcna_yeast POL30, P15873.
pcna_yeast POL30, P15873, sequence (P15873 whole entry): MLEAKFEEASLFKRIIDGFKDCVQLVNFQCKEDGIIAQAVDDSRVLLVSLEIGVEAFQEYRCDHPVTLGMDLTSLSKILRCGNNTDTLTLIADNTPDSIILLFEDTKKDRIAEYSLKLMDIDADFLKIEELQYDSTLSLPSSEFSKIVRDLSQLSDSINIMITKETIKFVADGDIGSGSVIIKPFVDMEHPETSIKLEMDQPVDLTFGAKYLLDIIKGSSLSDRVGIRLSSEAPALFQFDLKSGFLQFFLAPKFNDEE
F627A;F628A: the “effect of a mutation on the interaction” value was “decreasing interaction”.

These data come from IntAct's records for PubMed 11545742.
